Laboratory results: patent publication US20140087995A1 (published 2014)
Numbered stars: 1 amine (or outer) side, 2 acyl side, 3 side chain; on linkers, the order of the positions; unused ones are H or OH. Bridge positions count the residues as written; N and C are the ends. * marks the point of attachment. C20 diacid = O=C(O)CCCCCCCCCCCCCCCCCCC(=O)*; γGlu = O=C(O)[C@H](CCC(=O)[*:2])N[*:1]

T1: human calcitonin receptor (human, UniProt P30988 25-474)
T1 construct: whole, on cells; also called hCTR; hCT
T1 sequence (looked up): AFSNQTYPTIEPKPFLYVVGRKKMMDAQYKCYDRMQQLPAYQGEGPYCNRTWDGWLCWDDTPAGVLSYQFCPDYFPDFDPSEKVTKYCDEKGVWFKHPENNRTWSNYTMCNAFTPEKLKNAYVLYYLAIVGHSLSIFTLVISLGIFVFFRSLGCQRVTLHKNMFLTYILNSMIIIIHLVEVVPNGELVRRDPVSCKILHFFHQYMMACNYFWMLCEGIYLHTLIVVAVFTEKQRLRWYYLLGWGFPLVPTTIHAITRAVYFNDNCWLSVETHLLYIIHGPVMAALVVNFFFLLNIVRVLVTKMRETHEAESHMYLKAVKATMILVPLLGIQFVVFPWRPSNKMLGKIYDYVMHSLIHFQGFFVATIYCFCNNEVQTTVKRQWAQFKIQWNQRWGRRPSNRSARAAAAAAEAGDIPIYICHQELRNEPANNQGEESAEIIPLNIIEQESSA


Key:
[1] = biological target: T1, human calcitonin receptor; assay: SPA radioligand competition (125I-calcitonin), membranes of BHK cells with human calcitonin receptor
Summary of the method: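 BHK hCTR membranes 35 ng/μL + SPA beads 0.05 mg/well; buffer 50 mM Hepes pH 7.4, 1 mM CaCl2, 5 mM MgCl₂, 0.1% OA, 0.02% Tween20. 120 min, 25° C., shaking. Scintillation count; IC50 by one-site binding competition.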

[2] = biological target: T1, human calcitonin receptor; assay: ratio of IC50 at human calcitonin receptor to IC50 at human amylin receptor (SPA competition assays)
Summary of the method: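 Competition binding by SPA with cell membranes (35 ng/μL) and SPA beads in 50 mM Hepes pH 7.4 with 1 mM CaCl2, 5 mM MgCl2, 0.1% OA and 0.02% Tween20. Incubated 120 min at 25 °C with shaking, then counted.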

| Binder | IC50 [1] [nM] | Ratio hCT/hAmylin binding [2] |
| --- | --- | --- |
| {C20 diacid-γGlu}-GRCNTATCATQRLAHFLRHSSPNFGAIPSSTNVGHNTY-NH2 (disulfide 3-8; SMILES CC[C@H](C)[C@H](NC(=O)[C@H](C)NC(=O)CNC(=O)[C@H](Cc1ccccc1)NC(=O)[C@H](CC(N)=O)NC(=O)[C@@H]1CCCN1C(=O)[C@H](CO)NC(=O)[C@H](CO)NC(=O)[C@H](Cc1c[nH]cn1)NC(=O)[C@H](CCCNC(=N)N)NC(=O)[C@H](CC(C)C)NC(=O)[C@H](Cc1ccccc1)NC(=O)[C@H](Cc1c[nH]cn1)NC(=O)[C@H](C)NC(=O)[C@H](CC(C)C)NC(=O)[C@H](CCCNC(=N)N)NC(=O)[C@H](CCC(N)=O)NC(=O)[C@@H](NC(=O)[C@H](C)NC(=O)[C@@H]1CSSC[C@H](NC(=O)[C@H](CCCNC(=N)N)NC(=O)CNC(=O)CC[C@H](NC(=O)CCCCCCCCCCCCCCCCCCC(=O)O)C(=O)O)C(=O)N[C@@H](CC(N)=O)C(=O)N[C@@H]([C@@H](C)O)C(=O)N[C@@H](C)C(=O)N[C@@H]([C@@H](C)O)C(=O)N1)[C@@H](C)O)C(=O)N1CCC[C@H]1C(=O)N[C@@H](CO)C(=O)N[C@@H](CO)C(=O)N[C@H](C(=O)N[C@@H](CC(N)=O)C(=O)N[C@H](C(=O)NCC(=O)N[C@@H](Cc1c[nH]cn1)C(=O)N[C@@H](CC(N)=O)C(=O)N[C@H](C(=O)N[C@@H](Cc1ccc(O)cc1)C(N)=O)[C@@H](C)O)C(C)C)[C@@H](C)O, also called compound 100) | 66.3 | 65.3 |
| {C20 diacid-γGlu}-GRCNTATCATQRLAAFLRHSSPNFGAIPSSTNVGHNTY-NH2 (disulfide 3-8; SMILES CC[C@H](C)[C@H](NC(=O)[C@H](C)NC(=O)CNC(=O)[C@H](Cc1ccccc1)NC(=O)[C@H](CC(N)=O)NC(=O)[C@@H]1CCCN1C(=O)[C@H](CO)NC(=O)[C@H](CO)NC(=O)[C@H](Cc1c[nH]cn1)NC(=O)[C@H](CCCNC(=N)N)NC(=O)[C@H](CC(C)C)NC(=O)[C@H](Cc1ccccc1)NC(=O)[C@H](C)NC(=O)[C@H](C)NC(=O)[C@H](CC(C)C)NC(=O)[C@H](CCCNC(=N)N)NC(=O)[C@H](CCC(N)=O)NC(=O)[C@@H](NC(=O)[C@H](C)NC(=O)[C@@H]1CSSC[C@H](NC(=O)[C@H](CCCNC(=N)N)NC(=O)CNC(=O)CC[C@H](NC(=O)CCCCCCCCCCCCCCCCCCC(=O)O)C(=O)O)C(=O)N[C@@H](CC(N)=O)C(=O)N[C@@H]([C@@H](C)O)C(=O)N[C@@H](C)C(=O)N[C@@H]([C@@H](C)O)C(=O)N1)[C@@H](C)O)C(=O)N1CCC[C@H]1C(=O)N[C@@H](CO)C(=O)N[C@@H](CO)C(=O)N[C@H](C(=O)N[C@@H](CC(N)=O)C(=O)N[C@H](C(=O)NCC(=O)N[C@@H](Cc1c[nH]cn1)C(=O)N[C@@H](CC(N)=O)C(=O)N[C@H](C(=O)N[C@@H](Cc1ccc(O)cc1)C(N)=O)[C@@H](C)O)C(C)C)[C@@H](C)O) | 29.2 | 68.6 |
| {C20 diacid-γGlu}-GRCNTATCATQRLAAFLRHSSPNFGAIPSSTNVGPNTY-NH2 (disulfide 3-8) | 3 | 26.5 |
